B1: CdsV C-terminal region (residues 345-710) from Chlamydia pneumoniae (domain or fragment)
chain: ASTTVGAAGDGAATVGDNPDDYSLTLPVILELGKDLSKLIQHKTKSGQSFVDDMIPKMRQALYQDIGIRYPGIHVRTDSPSLEGYDYMILLNEVPYVRGKIPPHHVLTNEVEDNLSRYNLPFITYKNAAGLPSAWVSEDAKAILEKAAIKYWTPLEVIILHLSYFFHKSSQEFLGIQEVRSMIEFMERSFPDLVKEVTRLIPLQKLTEIFKRLVQEQISIKDLRTILESLSEWAQTEKDTVLLTEYVRSSLKLYISFKFSQGQSAISVYLLDPEIEEMIRGAIKQTSAGSYLALDPDSVNLILKSMRNTITPTPAGGQPPVLLTAIDVRRYVRKLIETEFPDIAVISYQEILPEIRIQPLGRIQIF
notes: CdsV (export gate protein, SctV family), Chlamydia pneumoniae, residues 345-710, the cytoplasmic C-terminal region; Cloned into pET28 with the vector's N-terminal hexa-His tag and thrombin cleavage site; Homo-nonameric ring; also called WT CdsVc; soluble export gate; source: nonameric peak fractions pooled
B2: CdsO residues 25-110 from Chlamydia pneumoniae (domain or fragment)
chain: KEKRRLLEIEQEKLREKEAERDKVKNHYMQKIQQLRDLLDEGTTSDAVLQIKSYIKVVAVQLSEEEEKVNKQKEVVLAASKELEKA
notes: CdsO (central stalk protein of the T3SS ATPase, SctO family), Chlamydia pneumoniae, residues 25-110 of the 168 residues of full-length CdsO; Cloned into pET28 as CdsV; Called monomeric in the ITC methods; also called CdsO_(25-110); central stalk protein

Legend:
[1] = molecular target: the molecule itself; assay: crystal structure; CdsVC alone; hanging drop, 100 mM HEPES pH 6.75, 5% PEG-6000, 21°C; refined to 2.8 Å
[2] = molecular target: B1; assay: crystal structure; CdsVC mixed with ~10% molar excess of CdsO_(25-110); 100 mM Bis-Tris pH 6.0, 4% PEG 3350, 200 mM ammonium acetate; refined to 4.6 Å; conditions: both partners purified
[3] = molecular target: B1; assay: ITC; monomeric CdsO_(25-110) (2.2 mM) titrated into nonameric CdsVc (15.0 uM) or nonameric CdsVc L638A/D639A (12.1 uM); 20°C; 10 mM HEPES pH 7.5, 500 mM NaCl; 24 x 2 uL injections; conditions: both partners purified

B1
stoichiometry N [1]: 9

B2
stoichiometry N [2]: 1 | Kd [3]: 28 ± 3 µM
